Measurements published in article PMC8611064, “Structure of the class C orphan GPCR GPR158 in complex with RGS7-Gβ5” (Nature Communications, 2021).
Each block holds one molecule with its values, some of them ahead of it.

How the values were obtained:
[1] = target: GPR158 (residues 1–863) (human) (UniProt Q5T848); assay: cryo-EM structure; GPR158 (1-863), RGS7-Flag and Gβ5 co-expressed, co-purified by anti-Flag resin and Superose 6 in LMNG/CHS, treated with 0.1% OG; 2:1:1 and 2:2:2 complexes sorted from one sample
[2] = target: apo GPR158 (human) (UniProt Q5T848); assay: cryo-EM structure; apo GPR158 in 20 mM HEPES pH 7.5, 200 mM NaCl, 0.01% LMNG, 0.001% CHS, 5 mM EDTA, with 0.1% OG added; 12.7 mg/ml
[3] = target: the molecule itself; assay: cryo-EM structure; GPR158 (1-863), RGS7-Flag and Gβ5 co-expressed, co-purified by anti-Flag resin and Superose 6 in LMNG/CHS, treated with 0.1% OG; 2:1:1 and 2:2:2 complexes sorted from one sample

stoichiometry N (RGS7–Gβ5 heterodimer per GPR158 dimer) [1]: 1
stoichiometry N (RGS7–Gβ5 heterodimers per GPR158 dimer) [1]: 2
Molecule: RGS7–Gβ5 heterodimer (from UniProt P49802 1-495; O14775 1-395) (complex)

stoichiometry N [2]: 2 protomers
Molecule: apo GPR158 (from UniProt Q5T848 24-710) (receptor)

B1: GPR158 (residues 1–863) (receptor, human, UniProt Q5T848 24-863, looked up)
chain: ASRDPQGRPDSPRERTPKGKPHAQQPGRASASDSSAPWSRSTDGTILAQKLAEEVPMDVASYLYTGDSHQLKRANCSGRYELAGLPGKWPALASAHPSLHRALDTLTHATNFLNVMLQSNKSREQNLQDDLDWYQALVWSLLEGEPSISRAAITFSTDSLSAPAPQVFLQATREESRILLQDLSSSAPHLANATLETEWFHGLRRKWRPHLHRRGPNQGPRGLGHSWRRKDGLGGDKSHFKWSPPYLECENGSYKPGWLVTLSSAIYGLQPNLVPEFRGVMKVDINLQKVDIDQCSSDGWFSGTHKCHLNNSECMPIKGLGFVLGAYECICKAGFYHPGVLPVNNFRRRGPDQHISGSTKDVSEEAYVCLPCREGCPFCADDSPCFVQEDKYLRLAIISFQALCMLLDFVSMLVVYHFRKAKSIRASGLILLETILFGSLLLYFPVVILYFEPSTFRCILLRWARLLGFATVYGTVTLKLHRVLKVFLSRTAQRIPYMTGGRVMRMLAVILLVVFWFLIGWTSSVCQNLEKQISLIGQGKTSDHLIFNMCLIDRWDYMTAVAEFLFLLWGVYLCYAVRTVPSAFHEPRYMAVAVHNELIISAIFHTIRFVLASRLQSDWMLMLYFAHTHLTVTVTIGLLLIPKFSHSSNNPRDDIATEAYEDELDMGRSGSYLNSSINSAWSEHSLDPEDIRDELKKLYAQLEIYKRKKMITNNPHLQKKRCSKKGLGRSIMRRITEIPETVSRQCSKEDKEGADHGTAKGTALIRKNPPESSGNTGKSKEETLKNRVFSLKKSHSTYDHVRDQTEESSSLPTESQEEETTENSTLESLSGKKLTQKLKE
notes: signal peptide in the construct; human GPR158 residues 1-863, followed by a PreScission protease site, GFP and a Twin-Strep II tag; No PreScission cleavage is told for the purification of the complex
stoichiometry N [3]: 2 protomers
